# Measured values reported in patent publication US20200102373A1.
# Biological target: biotin-labeled HA peptide
# Test: SPR (OpenSPR), biotin-labeled HA peptide on a Streptavidin chip, purified FB-GFP in solution, one-to-one model, two independent experiments
substance,measurement,value
"purified recombinant HA frankenbody fused with mEGFP and a hexahistidine tag (purified FB-GFP, from E. coli) (scFv)",Kd,14.7 nM
